Like-named read-outs stand apart in the source and are kept apart here. Each block holds one molecule with its values, some of them ahead of it.
Tests used:
[1] = target: T1, NpSRII/NpHtrII1-157 complex (sensory rhodopsin II with its cognate transducer) (Natronomonas pharaonis, UniProt P42196); test: X-ray crystallography, trapped M intermediate; type: binding; settings: active M state, light-induced; space group I212121; 1.9 A; covalent (retinal Schiff base, Lys205)
T1 construct: gene sop2; wild-type NpSRII with truncated transducer NpHtrII residues 1-157; produced in E. coli, reconstituted; 2:2 complex; with Sensory rhodopsin II transducer
T1 sequence (P42196 2-239): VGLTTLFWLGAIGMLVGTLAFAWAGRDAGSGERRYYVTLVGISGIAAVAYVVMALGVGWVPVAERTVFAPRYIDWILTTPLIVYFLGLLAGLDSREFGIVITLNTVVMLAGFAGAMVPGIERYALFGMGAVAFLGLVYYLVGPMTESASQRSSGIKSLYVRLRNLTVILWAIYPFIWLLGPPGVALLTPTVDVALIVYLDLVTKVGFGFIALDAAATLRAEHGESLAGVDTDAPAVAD
T1 sequence (P42259 1-157 partner): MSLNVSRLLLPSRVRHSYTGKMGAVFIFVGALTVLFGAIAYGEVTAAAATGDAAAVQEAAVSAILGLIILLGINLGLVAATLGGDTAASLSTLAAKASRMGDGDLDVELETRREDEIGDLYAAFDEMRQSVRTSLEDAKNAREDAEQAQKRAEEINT

[2] = target: T2, NpSRII/NpHtrII1-135 complex (Natronomonas pharaonis, UniProt P42196); test: X-ray crystallography; type: binding; settings: space group P21212; covalent (retinal Schiff base, Lys205); retinal isomer not stated separately for this crystal
T2 construct: gene sop2; wild-type NpSRII with truncated transducer NpHtrII residues 1-135; produced in E. coli, reconstituted; 2:2 complex; with Sensory rhodopsin II transducer

[3] = target: T3, NpSRII/NpHtrII1-135 complex (Natronomonas pharaonis, UniProt P42196); test: X-ray crystallography; type: binding; settings: ground state; covalent (retinal Schiff base, Lys205); retinal isomer not stated separately for this crystal
T3 construct: gene sop2; wild-type NpSRII with truncated transducer NpHtrII residues 1-135; produced in E. coli, reconstituted; 2:2 complex; with Sensory rhodopsin II transducer
T3 sequence (P42196 2-239): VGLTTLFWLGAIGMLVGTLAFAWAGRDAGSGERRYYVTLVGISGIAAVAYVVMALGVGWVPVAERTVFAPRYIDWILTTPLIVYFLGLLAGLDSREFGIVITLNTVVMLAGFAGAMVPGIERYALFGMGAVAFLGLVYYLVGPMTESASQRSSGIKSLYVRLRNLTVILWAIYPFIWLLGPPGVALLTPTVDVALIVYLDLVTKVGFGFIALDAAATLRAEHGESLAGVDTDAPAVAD
T3 sequence (P42259 1-135 partner): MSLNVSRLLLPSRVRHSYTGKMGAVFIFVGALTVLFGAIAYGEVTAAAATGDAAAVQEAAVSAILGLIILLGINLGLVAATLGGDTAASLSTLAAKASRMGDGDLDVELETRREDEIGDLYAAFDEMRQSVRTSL

[4] = target: T1, NpSRII/NpHtrII1-157 complex (sensory rhodopsin II with its cognate transducer); test: X-ray crystallography; type: binding; settings: ground state; space group I212121; 1.9 A; in meso crystals, pH 5.6; covalent (retinal Schiff base, Lys205)
[5] = target: NpHtrII (Natronomonas pharaonis) (UniProt P42259); settings: cited from earlier work
[6] = target: NpHtrII (Natronomonas pharaonis) (UniProt P42259); settings: cited from earlier work; remark: listed apart in the source
[7] = target: T4, sensory rhodopsin II from N. pharaonis (NpSRII) (N. pharaonis, UniProt P42196 1-239, retinal bound through a Schiff base (Lys205)); test: crystal structure; ground state, space group I2_(1)2_(1)2_(1), 1.9 Å; in meso crystallization (monooleoyl), 22 °C, 1 M Na/K phosphate pH 5.6, trehalose; settings: both partners purified
T4 construct: sensory rhodopsin II (NpSRII), N. pharaonis, wild type; also called the receptor; source: E. coli, purified, reconstituted into a functional complex, and resolubilized
T4 sequence (looked up): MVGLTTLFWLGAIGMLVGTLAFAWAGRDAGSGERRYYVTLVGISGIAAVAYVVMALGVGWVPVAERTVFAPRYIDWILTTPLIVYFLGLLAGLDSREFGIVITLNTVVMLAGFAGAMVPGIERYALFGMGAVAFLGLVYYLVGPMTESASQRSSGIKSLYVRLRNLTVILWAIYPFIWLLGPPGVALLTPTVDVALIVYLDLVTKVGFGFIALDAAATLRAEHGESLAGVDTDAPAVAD

[8] = target: the molecule itself; test: as above
[9] = target: T4, sensory rhodopsin II from N. pharaonis …; test: crystal structure; ground state of the complex with NpHtrII 1-135 (PDB 5JJJ); in meso crystals; space group not tied to this entry in the text (P6_(4) likely); settings: both partners purified
[10] = target: T4, sensory rhodopsin II from N. pharaonis …; test: crystal structure; complex with the G83F mutant, space group P2_(1)2_(1)2, "V"-shape; crystallization conditions the same as for the wild type complex in the P6_(4) space group; settings: both partners purified

Molecule: CC1=C(/C=C/C(C)=C/C=C/C(C)=C\C=O)C(C)(C)CCC1 [13-cis retinal]
X-ray crystallography, trapped M intermediate [1]: the retinal chromophore switches from all-trans conformation to 13-cis

X-ray crystallography [3]: 5JJJ (NpSRII/HtrII-135 ground state)
Molecule: CC1=C(/C=C/C(C)=C/C=C/C(C)=C/C=O)C(C)(C)CCC1 [all-trans retinal]
X-ray crystallography [2]: crystal structure of the NpSRII/NpHtrII1–135-G83F mutant demonstrate different crystal packing
X-ray crystallography [4]: the retinal chromophore switches from all-trans conformation to 13-cis

Molecule: NpSRII (active state) (from UniProt P42196)
Kd [5]: 15 µM

Molecule: NpSRII (from UniProt P42196)
Kd [6]: 0.1 µM

binding result [7]: binds
B1: NpHtrII_(1-157), shortened cognate transducer of NpSRII (domain or fragment, N. pharaonis, UniProt P42259 1-157, looked up)
chain: MSLNVSRLLLPSRVRHSYTGKMGAVFIFVGALTVLFGAIAYGEVTAAAATGDAAAVQEAAVSAILGLIILLGINLGLVAATLGGDTAASLSTLAAKASRMGDGDLDVELETRREDEIGDLYAAFDEMRQSVRTSLEDAKNAREDAEQAQKRAEEINT
notes: NpHtrII, transducer of sensory rhodopsin II, N. pharaonis, residues 1-157 (transmembrane helices TM1 and TM2, HAMP1 and linker); only the transmembrane part is seen in the electron density; also called HtrII-157; the transducer; source: E. coli, purified, reconstituted into a functional complex, and resolubilized
binding result [8]: binds

binding result [9]: binds
B2: NpHtrII_(1-135), shortened transducer (domain or fragment, N. pharaonis, UniProt P42259 1-135, looked up)
chain: MSLNVSRLLLPSRVRHSYTGKMGAVFIFVGALTVLFGAIAYGEVTAAAATGDAAAVQEAAVSAILGLIILLGINLGLVAATLGGDTAASLSTLAAKASRMGDGDLDVELETRREDEIGDLYAAFDEMRQSVRTSL
notes: source: E. coli, purified, reconstituted into a functional complex, and resolubilized

binding result [10]: binds
B3: NpHtrII_(1-135)-G83F mutant (domain or fragment, N. pharaonis, UniProt P42259 1-135, looked up)
chain: MSLNVSRLLLPSRVRHSYTGKMGAVFIFVGALTVLFGAIAYGEVTAAAATGDAAAVQEAAVSAILGLIILLGINLGLVAATLFGDTAASLSTLAAKASRMGDGDLDVELETRREDEIGDLYAAFDEMRQSVRTSL
notes: as for B2
